Measurements: the supplement of paper PMC12042874
± gives the uncertainty stated by the source.

test: amyloid nucleation score (Sup35N fusion, yeast selection) (log enrichment); library NNK3; higher = more nucleation; inactive = no reads after selection
Procedure, shortened: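 Nucleation score: DiMSum log enrichment of output over input reads, centred on the mode score of non-aggregating sequences. Only sequences with at least 100 input reads were kept. Reads came from Illumina sequencing of plasmid inserts before and after 7 days of growth at 30°C without adenine and uracil, in psi-negative yeast expressing Sup35N fused to peptides of 20 random codons after 24 hours of induction with 100 μM copper sulfate.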

| Substance | amyloid nucleation score |
| --- | --- |
| FTESVASYELAQVVSRSMLC | inactive |
| FTFCTCAKSAWTGLGLQGKI | inactive |
| FTFWWDRLQNWKHIGFFGKV | 1.06 ± 0.12 |
| FTIGNTA | inactive |
| FTKLYELSDMHISYTRS | inactive |
| FTKSREWGFMDKPAINWVSC | inactive |
| FTLARAMPLGYSQGIMKSRG | inactive |
| FTMMCVYMSWQSGSQRTVTI | inactive |
| FTMNQGSDVEVFLSSMF | inactive |
| FTNFCS | inactive |
| FTSYRSEPTIYALLCLGLSL | 2.08 ± 0.093 |
| FTVYCF | inactive |
| FTYVNSHECWLVKDMVAYFL | 3 ± 0.073 |
| FVAADSPGVSSFKAN | inactive |
| FVASDLLFGVRDQSVFSLSQ | inactive |
| FVCFIKLRLVDSRIVTNFQR | inactive |
| FVCKMVMIRRGDTWKVSKVV | inactive |
| FVDLSSIDYVF | inactive |
| FVEISRSGLLWFDF | inactive |
| FVERMVLVLV | inactive |
| FVIFW | inactive |
| FVISYELWAVSERNWSFEMR | inactive |
| FVLFGGWLPRVQRLSLGTGR | inactive |

| Substance | amyloid nucleation score |
| --- | --- |
| FVLQFSSGCYFGPD | inactive |
| FVLVGL | inactive |
| FVMTIM | inactive |
| FVNSRVLWMIKIC | inactive |
| FVPNVRLTDLWRANKGIVSH | 0.404 ± 0.38 |
| FVQSGLFFMCDGSCGLLRVF | inactive |
| FVRIHVGSSTGIF | inactive |
| FVSGDSNTIIQPMAYNMDSK | -0.282 ± 0.42 |
| FVSVDGWSESMWLASVVLSE | inactive |
| FVTIRGVRRTCNPFKGINYG | inactive |
| FVVFCRNPNSGLGNCTVSCD | inactive |
| FVVFIRDIICMVNNFMLMRM | inactive |
| FVVRIKYTGSDLRLFRMVSF | inactive |
| FVVSKLYMPRWASLLLCWRL | inactive |
| FVYILGTMMNRRGFDPWIGD | 0.631 ± 0.32 |
| FWGVSDGFMC | -0.141 ± 0.96 |
| FWIWIWRIWYDGNEDNLDHF | inactive |
| FWKAFRFTDSVFPIKHPNLS | inactive |
| FWLGGVDLAPKVGKQTMNLA | inactive |
| FWRLRWYMRDGFSDYSGGEY | 0.719 ± 0.13 |
| FWSPGYTIVTVTLNGLVPW | inactive |
| FWSSLAVQRACKCMGGFCDL | inactive |
| FWSWNVWLRSGSPAISFHK | inactive |

| Substance | amyloid nucleation score |
| --- | --- |
| FWTKFC | inactive |
| FYDLFN | inactive |
| FYFVGKYWRGDEYFDFRLAV | inactive |
| FYGHQVNISGDNGVRTRPEV | inactive |
| FYHNNYINANHVWRKSY | inactive |
| FYICYLNPNQQLFVLN | 1.27 ± 0.1 |
| FYILCHHKDCNIGHPILGGK | inactive |
| FYLYLDHVKVNWSRS | 0.989 ± 0.15 |
| FYNVRF | inactive |
| FYSLWRNRYNNSNQEWDIRW | inactive |
| FYSMSLVSFCFYGDLYLDNG | 2.76 ± 0.077 |
| FYSNPNIVGFLMLLVYILEP | inactive |
| FYVLNMNDLTSGLDMHVKS | inactive |
| FYYWVGFCAGKAEDFRDLLC | inactive |
| FYYYDLYYGRVFRDSPYSMS | inactive |
| GAFSEDFRESGLFLNVREGE | inactive |
| GAGYADICPTAFHMPRWVFN | inactive |
| GAIWERLDIREM | inactive |
| GAMCIRWEG | inactive |
| GAPGLMFVFLKKSVFLYSYL | inactive |
| GASGCLSWHFGLIV | inactive |
| GASNMFHDPELSG | inactive |
| GAVRMVETTMYFLFTMPSGS | 0.359 ± 0.24 |

| Substance | amyloid nucleation score |
| --- | --- |
| GCGSYSDQGRCSTSVSVC | inactive |
| GCHFLH | inactive |
| GCIIGCQLDKYGPAMPSARE | 0.632 ± 0.3 |
| GCIMEEKFLRMDFDVVSEYN | inactive |
| GCNRVIYKRI | -0.609 ± 1.2 |
| GCVRGCTATWRMLCAGSKCC | 0.71 ± 0.33 |
| GCVSGRHDNTFRDYD | inactive |
| GDEWGSFLECFITITSSIND | inactive |
| GDFYASGSPVKFVRVGMDEC | inactive |
| GDHSDWRKRGSLLNGVVLCV | -0.5 ± 1.5 |
| GDILGHRRHSVVRSRRQSLT | inactive |
| GDLSS | inactive |
| GDNHSQD | 0.37 ± 0.16 |
| GDQFQAMHVWNLPDVDYYVH | inactive |
| GDSCCDRLYLFFGVWCVRAV | inactive |
| GDSIRSWNRGAVEIA | -0.377 ± 1.5 |
| GDSLGGTYYLLRSFFCCRDL | inactive |
| GDSLMMYQQDWISEVLICLA | inactive |
| GDVIMCFNFRTFLSTITPGS | 1.96 ± 0.092 |
| GEILSGITTLGVYYSYVWHL | inactive |
| GESAKDVFGSLCRRLISIQL | inactive |
| GESNVFILSAFNFNALVGFS | inactive |
| GEVNTAFYSWPAMPVLADYG | inactive |

| Substance | amyloid nucleation score |
| --- | --- |
| GFGFRAVMPMLYFEYYGQR | 0.793 ± 0.12 |
| GFRMGLTHCHSALKEFRFCH | inactive |
| GFSYSWNLFILFGQQICWIW | inactive |
| GFTVMDPIV | inactive |
| GFVFQVYPQFVWVPPTTSRQ | 1.2 ± 0.18 |
| GFYLVKSSMSWVANWCGKHT | inactive |
| GGCDL | inactive |
| GGEGHSEVRRKTPGITCACI | inactive |
| GGFRISHSIC | inactive |
| GGKSVLLTFFQWLP | 0.56 ± 0.2 |
| GGMYKNWGCWLELLGKTLPW | inactive |
| GGQGIYMY | inactive |
| GGRDNTEIDVMTWRRRPGKS | inactive |
| GGSLGHSRLSKDVSVEESAW | inactive |
| GGVRPVKYGSVWVYRFWDQC | inactive |
| GGVTFYMYCIRLVNDQQGHR | 1.21 ± 0.098 |
| GGYQAQTWL | inactive |
| GHISGTESCNI | inactive |
| GHPGNSAEADKCGHRQRRP | inactive |
| GHSHCMNSVLHSNMSLNTVI | inactive |
| GHVSTCPNDGAAALSCLELF | inactive |
| GICHSSRCWGTSENGNWLRI | inactive |
| GIFEFKLNSLNSNERGLRAG | inactive |

| Substance | amyloid nucleation score |
| --- | --- |
| GIGLCVGYE | inactive |
| GILCVEMSVTSLGLIIETYF | inactive |
| GILNFAL | inactive |
| GILNT | inactive |
| GILSKIDVSWWRMAVSVKCW | inactive |
| GIRHVGLVGTMSRKDWSYFR | inactive |
| GIRYQRFVRRVFHDYWR | inactive |
| GISALSVWFCISDRRSDQDH | 2.63 ± 0.057 |
| GITMFGLHMYQNDCLEVAWL | 0.904 ± 0.25 |
| GITVMSLTG | inactive |
| GIVDQFRTVSNNVLNQYEIW | inactive |
| GIWCDITHGNRMAWNYVLIR | inactive |
| GIWDWVLAIMLRFVTKPS | inactive |
| GKGPNCMGASFLNGAHWSGI | inactive |
| GKISTRFRFFSVDETRPTIN | 1.18 ± 0.15 |
| GKKLDMYHIRHSRW | inactive |
| GKVYLYLCLGMMFGL | inactive |
| GKYKFSLF | inactive |
| GLCPYSIQFFGGRSDHNW | 1.24 ± 0.15 |
| GLCRWVTPTAWSAIVVQFCV | inactive |
| GLCSMLASFRTQYSS | inactive |
| GLDHLPMFWYRPLIWPDVPQ | inactive |
| GLEFRARRKCRTKGELHDK | inactive |

| Substance | amyloid nucleation score |
| --- | --- |
| GLFESERIYMWAYHFR | inactive |
| GLFRFFVIIITEEVRRAVSK | inactive |
| GLFRRVRGIRT | inactive |
| GLGPSCSQYKP | inactive |
| GLGTAD | inactive |
| GLIVCVVASSYLMSGFGVKG | 0.03 ± 0.22 |
| GLMESSCRMGLLNPIQTFTQ | 0.036 ± 0.98 |
| GLPLVACLMSEQYCL | inactive |
| GLQVYMIQRIETGM | inactive |
| GLTTSYQPYILYIL | inactive |
| GLVLTPDEEMIRQWEMLTYG | inactive |
| GLVNVVWMCFLGWPWLKVRS | inactive |
| GLVSGGVFMMADMSRILKGK | inactive |
| GLVYWVQHGCWLTAIQSVLV | inactive |
| GMFDCMIELYISGPDLGQGS | inactive |
| GMFMCMKMVFFLKWYINLYF | inactive |
| GMFRDHAYADCRGLTY | inactive |
| GMIASDVFAHFKSGQTMGVW | inactive |
| GNDVGSMFESRN | inactive |
| GNFINHT | inactive |
